According to the domain aggregation screens of Martell et al. (2025):

assay: soluble fraction after stress (log2 fold change); higher = more stays soluble; pooled small domains, quantitative proteomics; settings: stress: 50 degC
Summary of the method: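 Custom libraries of small protein domains were pooled and measured in a high-throughput format, with quantitative proteomics as the read-out. Each library was stressed at 50°C. The value is the log2 fold change in the amount of each protein that stays soluble after stress, used as a measure of aggregation propensity; higher values mean more of the protein stays soluble.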

Point of comparison: “HMEQLNKNIKFDNFLESLNFINKVSEVAEEENHHPDLKFGWGYADITIFTHAIKGLSEGDFVLAAKIDVI”, “soluble fraction (log2)” value 0.269. Against it:
- HMEIHIGSLIKEKMEERGLSVSDFAHALHYERTNIYKIFKRSSIDVDLLLRISEVLAYDFLREVYL — lower, -2.63
- HMVDIQTGQKVRIHTSQFAGKIGNITALNVKSAELPNGIRTATASILMQSNENVMLPVSNFDIIE — lower, 0.0434
- HMADTSPEGVQKLIKAFEQFGVSKDDIEGFIQRRVDAITPANVVSLRKIFTSLRDGMSSAKDWFKGA — lower, 0.00107
- HMDAKSRFQEWVQAETGITPTYRIIGDSGPDHAKTFIAQVLLGERVVGEGVGSSKRAAEQAAAQAALAAM — within 0.2 log units, 0.186
- HMEWTDHLAEELRSLAVEGEHLEIIANKLGISPGSARAKLVNLNIYNDYQLAHIERLEADTLQAK — lower, -0.318
- HMLEKDIGKAITILRKSYQLSISAFSMRTGYSRVHISEVESGKRKATDELISVIRNVFHLDSNWPF — lower, -1.47
- HMQGLIGEQKAIQIALSRVPGAKPEHVRELKLDYDDGMQLYEGEIFYNFREYEFEINAVTGEVVGWEI — lower, -1.6
- HMREKMKGKILDYNFQESRGIISADDGNRYSFENSQWKGTQSPKVNQIVDFEIDGQNAKDIYLDK — within 0.2 log units, 0.162
- HMSGAWEVGLLRQFTDWMGTQYNAYAGRNFDAITVAQVAEKNPELLTPFVESFFKERVEPALAAG — lower, -0.849
- HMKMQIGEIIRKYRKSNHMTQEEMAERLGVSAPAVNKWENGNSMPDIMLLAPITRLLGISLDELLSFE — lower, -1.24
- HMNTQGWEIFEGRITTADTDLNPSGWIRIDGQRIFVISDAGFIDKGKEVSILSVDGNRVLVRK — lower, -0.641
- HMGTAGLSPWHKIAVLMIALGPEGASELMRHFGEDEVEQVVQAIADLKNVPSELQDAVLLEMEGALQEG — lower, -0.00851
- HMSIITLFQEINAAVAEATGGRVPESVVQNFILGKDVVIPEDVKEIIISKLKAFATDIEGMLEESGFD — lower, -0.909
- HMFYPIAHTLTKLNIRSGPGEQYQKLATFENNHDLVVLTQQNEWVQVRGKSDEQVIIGWVHSSFLSPT — lower, -1.09
- HMTASTLSYSKFNEQVVQNQVRKVTFQGEQVKGELISGQTFTTTVPANDTTLWPMLKAHNVDTAVTAA — within 0.2 log units, 0.229
- HMIQTKNVTFTINEKTKIANIPLKSLKILSQEDNRITLSYEKNSLKIDEIISYFSDKNINILDITTD — lower, -0.451
- HMKEVKPSDFFLSKLDEDHNLIEKFNALSSFKQKEFIEYIDSAKQEKTKHDRFEKIKPILLSNIGLNDKYR — within 0.2 log units, 0.075
- HMDTNRIIGNKIYQLRRSINMTQQELAEKVGISVTFLSEIENGRKSMSVDTLIKLSKGLQVSLDTIVF — lower, -1.46
- HMAPFSGVEPREWDSLVERGRQSGEVHAEDVTHVLRHVELTGDVLTDVQSKMAEHGITIDDA — within 0.2 log units, 0.206
- HMQETILFGQQKAINNLSSDTGLSENDLDSYLKKRYKKPLYQLTQSEGADIINGFQDGSLSKNSILDYIKP — within 0.2 log units, 0.16
- HMDVLKMKVEDLNIGSRTVNSLTAAKIKTVAGLIKKSKESLLELDGMGNKGVEEIILALKKLGLEL — lower, 0.0186
- HMTFPTEAKLTGDKVFVRSGPSTQSQRLTNLAINSVVTVLAREMGDMQYPWYKVRYSDGEGWVYGQYVEAI — lower, -0.0237
- HMTDRINIGDVVTIISKDREDSQIVYMRYHKGKLSILGELILNKTKNDTVDFKGRTYDIATIEKS — lower, -1.83
- HMEGVSNLIVSVTRVKVTVDLSQAKVYLSIFPSEQAAFYLNALQQNRFQLKHDLSQLLKNQLRRIPTLQF — within 0.2 log units, 0.283
- HMSNPPLPFLAKTKVSWTGEQDGDLGFLENEVVKVFHVVDELWWQGSLSRNGAEGIFPRDFVEVISAP — lower, -1.8
- HMIRTGEVVTGKVINVKEDQIILNIGFKSDGIITRNEYTNDNSLDLRTVVHEGDEIEAKVLKVNDGEGQVV — higher, ≥ 0.62
- HMDSSLVWVDYLLGSKLTKLNSSNELTGPGASAKTIGAFLGENKQSFDLYIESVHNARDTYSDILTHGT — lower, -0.0043
- HMELTDRQKQIIEIVKKQQPISGEKIASILGFARATLRPDFSLLTMSGILQAKPKVGYLINEE — lower, -0.152
- HMQQLTQRELTLLRLLANGYNNRQIAEQLQLAESTVKNNLSALFQKIGVRDRTQAVLFAISQGLVP — lower, -0.656
- HMSRRIEIELTSSRPDGSWTWRAAGAREPKGVLDGTLLSQGSKPGDVVKAEAEFDIDGITIVSITQ — lower, -0.18
- HMSGEIPFPPAFKPSADHIAIASEKGINIETELLNFRDYHQARGTKLIDWNSAFRVWLRNAR — lower, -0.144
- HMAMYYVIGGDGQQYGPIDEATVRGWLGEGRVSAASLSFKTGEAQWIPLRDRPELADVLATA — within 0.2 log units, 0.112
- HMLETHRRRQIILSLLRESGMLDVDEVAARLVVSPNTIRNDFNALAAEGLLRRIRGGATLAEP — lower, -0.349
- HMKLRSIQEQVQYLEKVDNQKAMQIILNMNDKASAVQILRNMKKEKAAAILAQMDPLQAAQILEDLA — lower, 0.0608
- HMLSSEQQQKLDSLSRKELEVAELVSHGATNKMIARTMNITERTVKAHLTAIFQKMNIPDRLSLAIFFRDL — lower, -2.44
- HMGIQQNHMTLHARSVASSANVPAEHFDTLVEKLIESGDIKVWKAREILMNLSRQHEEILDES — lower, 0.0119
- HMASFTDAQALEVKDLYPDWSKIPEGTHLEAGQRVRYNGNLYKVRTGQAHDKQSTWTPTDAASLFEAID — within 0.2 log units, 0.116
- HMRRDEDLAHGRELLEKELRKQGLEVSENLKQDKLLEGAKRLGFLEAEDLVVAVGSGKVSAGMAVGRIIG — within 0.2 log units, 0.16
- HMVMLIVMNHTASQADIDKVIEVVSGMGFTAAPIPGGERTAIGVLGNKGYVDDSTIRDLPGVQQAIHVSKP — lower, 0.0615
- HMDAHIGTLTPRERETLHHLAIGHSNKVIAKKLNLAESTVKAYVQSILRKLGLSSRVQAAVYAIQHDIR — lower, -0.205
- HMYDDEELDVLAHRPIESYTDAELAMLREVAETLLETDYEGWLKSLSMRGILLPPEILQLVT — lower, -0.049
- HMYDAEAINKFFDIENWDFGETFYFQELSAYIMNQLSPKLVTILIVPRQTTQAFGSLFEIKSEPDEIFAS — lower, -0.107
- HMAIDVQELARTRLRSLRTTLGYSLDELAARTHLSPSTISRLETGKRSLSLDVVVPLAQALHVSLDVLFEA — lower, -2.68
- HMQTMNKTNISNFEKYLNSGDVSEVIVVRNKSSVRVTLTPEALRSSEHQAVVGKNILGQENIKGPHYQFEV — lower, -0.0672
- HMTLVKRSAMVTAWSEFAGGRVNSKLIALQNGKAGDWIELENPQSGRKLRGRVQSDGSVRLGS — within 0.2 log units, 0.169
- HMTNEAFITPSVLEWAIKRAGVSAESIHKKAEQWVSGKARPTFKQAVDIAKTLQIPFGYLWLKEPPKEQ — lower, -0.551
- HMDGEITLYKVVGYIKASDFDDKKNGFVIADDYITKRQAEDTMYEWKRKKTYPYLEIKEYKGKDPYK — within 0.2 log units, 0.295
- HMSPLTPEEAEVLRILGDHGDMTVDNIATEGKMSAAAVLRVLGVLSAYGLAVPSGPGRWGSRAA — lower, -0.24
- HMNGARALAGAIAEAIRKQVYRVNERLPAERELASHYDVSRGTLRSALALLEQEGLVTRKVGSGTFVMPP — lower, -0.438
- HMSDRQLKRQANILYTTRKLASKVGYDGLTMRGLAEASEVSPKTLYNLFSSKDELLAAALEDLVGIV — within 0.2 log units, 0.282
- HMPKLPIIYVLDGHVNKNALTTSGKNKVWIEHELKKHHINSIKDVLIAMTDTEGKFYYQLYD — lower, -1.44
- HMLELLSMEDIQRTRVGDLIATVRQVDRQHALVLDRDPETGKPAVRGIFSLSQISLRLGLNI — lower, -0.557
- HMNQSEMIGSRLKEERLQQKLTLKQLSEKVGLSIGYLSQVERGYGTLSLSALKKLSSALGLEMSTFFD — lower, -0.992
- HMELKFIGEAVNNPKRPLIAILGGAKVSDKIGVIENLLTKADKILIGGAMMFTFLKAEGKNIGTSLVED — lower, 0.0616
